From article PMC7891125 (Cell, 2021)

Biological target: T1, SARS-Cov2 Spike ectodomain for structural analysis (SARS-CoV-2 Wuhan-Hu-1 (MN908947), UniProt P0DTC2, RRAR > GSAS at residues 682-685 | KV > PP at residues 986-987)
T1 construct: also called trimeric spike
Test: cryo-EM structure; spike (S ~0.6 μm) with Fab or IgG (1:6 molar ratio), applied to the grid almost immediately
Conditions: both partners purified

B1: Strep-tagged Fab 158 (Fab, V domains shown)
VH: EVQLLESGGDLIQPGGSLRLSCAASGVTVSSNYMSWVRQAPGKGLEWVSIIYPGGSTFYADSVKGRFTISRDNSKNTLYLQMHSLRAEDTAVYYCARDLGSGDMDVWGKGTTVTVSS
VL: DIVMTQSPSFLSASVGDRVTITCRASQGISSYLAWYQQKPGKAPKLLIQAASTLQSGVPSRFSGSGSGTEFTLTISSLQPEDFATYYCQQLNSYRYTFGQGTKVEIK
notes: also called Fab58 (as printed in the crystallization paragraph); source: HEK293T, transient transfection, purified (Strep-Tactin)
binding result: binds

B2: Fab 253H165L (Fab, V domains shown)
VH: not shown
VL: DIVMTQSPGTLSLSPGERATLSCRASQSVRSSYLAWYQQKPGQAPRLLIYGASRRGTGIPDRFSGSGSGTDFTLTISRLEPEDFAVYYCQQYGSSPWTFGQGTKVEIK
notes: also called chimera 253H165L
binding result: binds

B3: Strep-tagged Fab316 (Fab, V domains shown)
VH: not shown
VL: QAVLTQPPSASGSPGQSVTISCTGTSSDVGGYNYVSWYQQHPGKAPKLMIYEVSKRPSGVPDRFSGSKSGNTASLTVSGLQAEDEADYYCSSYAGSNHWVFGGGTKLTVL
stoichiometry N: 3 Fabs/trimer

B4: Strep-tagged Fab150 (Fab, V domains shown)
VH: QVQLVESGGGLIQPGGSLRLSCAASGVTVSSNYMSWVRQAPGKGLEWVSIIYSGGTTYYADSVKGRFTISRDSSMNTLYLQMNSLRAEDTAVYYCARDLMVYGIDVWGQGTTVTVSS
VL: EIVMTQSPSSLSASVGDRVTITCRASQGISSYLAWYQQKPGKAPKLLIYAASTLQSGVPSRFSGSGSGTDFTLTISSLQPEDFATYYCQQLDSYPPGYTFGQGTKVDIK
notes: source: HEK293T, transient transfection, purified (Strep-Tactin)
binding result: binds

B5: Strep-tagged Fab88 (Fab, V domains shown)
VH: QLQLQESGPGLVKPSQTLSLTCTVSGGSISSGSYNWTWIRQPAGKGLEWIGRIYNSGSTNYNPSLKSRVTISVDTSKNQLSLKVRSVTAADTAVYYCARHCSGGTCYPKYYYGMDVWGQGTTVTVSS
VL: QSALTQPPSVSEAPRQRVTISCSGSSSNIGNNAVNWYQQFPGKAPKLLIYYDDLLPSGVSDRFSGSKSGTSASLAISGVQSEDEADYYCAAWDDSLNVVVFGGGTKLTVL
notes: as for B4
stoichiometry N: 3 Fabs/trimer
